Article PMC4427524 (Molecular cell, 2015)
Where no end group is shown, it is not given here.

Molecular target: purified recombinant WDR5 (used for FPA) (UniProt P61964 1-334)
Assay: fluorescence polarisation

Binder | Kd
DEEEIDGVSV [MbIIIb mutant peptide V264G] | > 500 µM
DEEEEDEESV [MbIIIb mutant peptide WBM (I262/V264/V265 to glutamic acid)] | > 500 µM
DEEEIDVVSV (also: FITC label (position not given here)) [FITC-labeled MbIIIb peptide (residues 258–267 of human c-MYC)] | 9.3 µM
